Targets include YFP-GKC (rat); YFP-GKC[trunc] (rat); YFP-α1C (α1C[1671]) (UniProt P15381); YFP-GKC[ΔPYDVV] (rat).
Common to all, as to experiment: FRET or BRET
(BRET reads energy transfer from a luciferase to a nearby fluorophore.)

Consider CFP-NSH3 (domain or fragment), for which the FRET ratio (FR) in the experiment with YFP-GKC (rat) came to 2.8; with YFP-GKC[trunc] (rat) it was 3.7; in the experiment with YFP-α1C (α1C[1671]), 1.68. Also, the values for the K d,EFF (relative dissociation constant) in the experiment with YFP-GKC (rat), in the experiment with YFP-GKC[trunc] (rat) and with YFP-α1C (α1C[1671]) were 1870, 3090 and 11700, respectively. Moreover, the effective FRET efficiency (E EFF) was found to be 10.2% with YFP-GKC (rat) and 15.5% with YFP-GKC[trunc] (rat).

Turning to CFP-α1C[I-II loop] (domain or fragment), the FRET ratio (FR) in the experiment with YFP-GKC (rat) came to 5.4; with YFP-GKC[ΔPYDVV] (rat) it was 5.5. Further, the effective FRET efficiency (E EFF) with YFP-GKC (rat) came out at 25.6%; with YFP-GKC[ΔPYDVV] (rat), 26.1%.

Source of the values: publication PMC2266626.
